Test results published in patent publication US10640556B2, “Anti amphiregulin antibodies, compositions comprising same and uses thereof” (Yeda Research and Development Co. Ltd., priority 2015, dated 2020).

T1: human AREG (Homo sapiens, UniProt P15514)
T1 sequence (P15514 101-198 limits assumed): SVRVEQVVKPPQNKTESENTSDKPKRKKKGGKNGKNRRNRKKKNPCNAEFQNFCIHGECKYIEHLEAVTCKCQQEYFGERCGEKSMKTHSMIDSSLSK

B1: AR30: anti-AREG monoclonal antibody; heavy chain SEQ ID NO: 2, light chain SEQ ID NO: 16 (antibody, V domains shown)
VH: EVQLQQSGAELVRSGASVKLSCTASGFNIKDSYMHWVKQRPEQGLEWIGWVDPDNGDTEYAPEFQGRATLTADTFSSTAYLQLTSLTSEDTAVYYCNAPSTYGHYGFAYWGQGTLVTVSA
VL: DIVMTQAAPSVPVTPGESVSISCRSSKSLLHSNGKAYLYWFLQRPGQSPQLLIYRMSNLASGVPDRFSGSGSGTAFTLRISRVEAEDVGVYYCMQHLEYPLTFGAGTKLELKR
modifications: AR30 heavy chain (IgG) complete amino acids coding sequence; AR30 light chain (kappa) complete amino acids coding sequence
B2: AR558: anti-AREG monoclonal antibody from AREG knockout mice; heavy chain SEQ ID NO: 30, light chain SEQ ID NO: 46 (antibody, V domains shown)
VH: EVQLQQSGAELVKPGASVKLSCTASGFNIKDTYMHWVKQRPEQGLEWIGRIDPANRSTKYDPKFQGKATITADTSSNTADLHLSSLTSEDTAVYYCARLYGDSVWYFDVWGAGTTVTVSSAKT
VL: QIVLTQSPAILSASPGEKVTMTCRAGSSVNYIHWYQQKPGSSPKPWIYATSNLASGVPARFSGSGSGTSYSLTISRVEAEDAATYYCQQWSGYPPMLTFGAGTKLELKR
modifications: AR558 heavy chain IgG complete amino acids coding sequence; AR558 light chain (kappa) complete amino acids coding sequence

Assays:
EGFR [1] = biological target: T2, EGFR (Homo sapiens, UniProt P00533); test: Ligand-induced receptor ubiquitination assay (MCAS, MLS, H358, A549 cells); type: cell-based; design: endogenous in cells; host or cells: MCAS, MLS, H358, A549; conditions: 10 minutes, ligand 100 ng/mL; MCAS, MLS, H358, A549 cells
Description: (§1) The cells were later washed and lysed, and the associated radioactivity was determined. […] The cells were later washed and lysed in 1 N NaOH. Cell-associated radioactivity was determined. […] Washed immunocomplexes, along with whole extracts, were immunoblotted with the indicated antibodies.
For determination of ligand-induced receptor ubiquitination, cells were extracted in lysis buffer (50 mM HEPES pH 7.5, 150 mM NaCl, 10% glycerol, 1% Triton X-100, 1 mM EDTA, 1 mM EGTA, 10 mM NaF and 30 mM 3-glycerol phosphate) with freshly added 0.2 mM Na3VO4, a protease inhibitor cocktail and 2 mM N-ethylmaleimide (NEM). Twenty μL of protein G agarose beads and 1 μg of antibody were added to 500 μg of protein lysate. After a 2 hour incubation at 4° C., the immunoprecipitates were collected by centrifugation at 14,000 rpm at 4° C. for 1 minute. The supernatant was discarded and the pellet was washed thrice, prior to electrophoresis.

EGFR [2] = biological target: T2, EGFR; test: Receptor downregulation assay in MCAS cells; type: cell-based; design: endogenous in cells; host or cells: MCAS, MLS, H358, A549; conditions: ligand 10 ng/ml
Description: as §1
At the end of the incubation period, the cells were placed on ice, washed with ice cold medium and subjected to mild acid wash (0.2 M Na-acetate buffer, pH 4.5, and 0.5 M NaCl) for 2 minutes, followed by 2 washes in ice cold medium. […] Finally, cells were lysed in 1 N NaOH, and their radioactivity was determined.

MLS ovarian cancer cells = test: MLS ovarian tumor xenograft in nude mice; type: in vivo; conditions: MLS tumors
Description: FIG. 7A, female nude mice (6 weeks old) were inoculated subcutaneously with MLS ovarian cancer cells (2×10^6 per animal). Once tumors became palpable, mice were randomized into two groups. Eleven mice were injected intraperitoneally with an anti-AREG mAb (AR30; 200 μg/mouse; twice a week, on days: 8, 11, 14, 17, and 21). The control group also included 11 mice. Shown are means±S.D. values; FIG. 7B, female nude mice (6 weeks old) were inoculated subcutaneously with MLS ovarian cancer cells (2×10^6 per animal). Once tumors became palpable, mice were randomized into four groups. One group (8 mice) was injected intraperitoneally with the AR30 mAb (100 μg/mouse twice a week, on days: 8, 14, 17, 21, 24 and 28). Another group (8 mice) was treated with cisplatin (5 mg/kg; on days 8 and 21). The fourth group was treated with a combination of mAb AR30 and cisplatin. The control group included 12 mice; and FIG. 7C, the indicated MLS tumors were excised, and their average weights determined. Representative tumors were photographed.
All animal procedures were approved by the Weizmann Institute of Science's review board. Female athymic NCr-nude mice (6 weeks old) were inoculated subcutaneously with 2×10^6 human ovarian MLS cancer cells. Once tumors became palpable (5-7 days), the mice were randomized into groups and injected intraperitoneally at the indicated time points with the indicated monoclonal antibodies, chemotherapy or the combination. Tumor volumes were monitored twice a week, and body weights were measured once a week.

[3] = tested on: Cal-27 human head and neck cancer cells; test: Cal-27 head and neck tumor xenograft in nude mice; type: in vivo; conditions: Cal-27 tumors, 300 μg per injection intraperitoneally twice a week
Description: Female nude mice were inoculated subcutaneously with Cal-27 human head and neck cancer cells (2×10^6). Once tumors became palpable (5-7 days) mice were randomized and intraperitoneally injected with saline (Control), or with anti-AR mAbs: AR30, AR37 or AR558 (each at 300 μg per injection). Mice were treated with mAbs twice a week and tumor volume was followed. Shown are averages and SD values from at least 5 mice per group.
To test the ability of anti-AREG antibodies to reduce growth of human tumor cells implanted in immunocompromised mice, Cal 27 tumor cells were used which were inoculated subcutaneously and randomized for treatment after tumors became palpable. […] Furthermore, studies testing pairs of two mAbs illustrate their enhanced anti-tumor activities (data not shown), this can be attributed to the fact that the mAbs bind to distinct antigenic determinants of amphiregulin.

MCF10A cells = test: MTS proliferation assay of MCF10A cells; type: cell-based, human; conditions: 72 h, absence or presence of AREG, relatively high mAb concentrations
Description: Proliferation assays using MTS were performed on MCF10A cells (1,000 cells per well). C ells were plated on the day before and treated for 72 h with the indicated mAbs (1, 5, 10, 20 or 50 ug/mL). Increasing concentrations of the indicated mAbs (either alone or in combination with AREG) were used in medium supplemented with 1% serum and AREG (either at 10 or 100 ng/mL).

human AREG [4] = biological target: T1, human AREG; test: Antigenic determinant comparison of anti-AREG mAbs; type: binding; conditions: data not shown
human AREG [5] = biological target: T1, human AREG; test: Plasmon resonance and immunoblotting of EGF-family ligands with AR30; type: binding
Description: FIGS. 6A-6F illustrate AR30, an anti-AREG monoclonal antibody, that inhibits auto-phosphorylation of EGFR. FIG. 6A is a photograph of a Coomassie blue staining of an acrylamide gel showing a purified fraction of AREG isolated from bacteria and purified on a NiNTA column. The molecular weight marker lane indicates a 15 kilodalton band; FIG. 6B, cells were seeded in a 24 well plate, washed and incubated with increasing concentrations of the purified TRX-AREG fusion protein (8.5, 85, 850, 8500 ng/ml). […]
SPR was performed on a BIAcore 3000 instrument (BIAcore, Uppsala, Sweden). […] The net signal was obtained by subtracting the blank signal (plain dextran matrix) from the signal recorded from the immobilized surface. The association phase for analyte binding to all ligands was followed for 4 minutes, and dissociation phases were monitored for 3 minutes. […] The response was monitored as a function of time (sensorgram). […]
To functionally characterize a selected anti-AREG mAb, its specificity was tested using an Enzyme-Linked Immunosorbent Assay (ELISA) assay covered with different ligands. […] The AR30 affinity to the different ligand was assessed by Surface plasmon resonance (SPR).

EGFR [6] = test: AREG-induced EGFR phosphorylation in HeLa cells (immunoblot); type: cell-based, human; conditions: for AREG-induced phosphorylation of EGFR: AREG 100 ng/ml, mAb 0.1-50 μg/ml, FIG. 10A
Description: FIGS. 6A-6F illustrate AR30, an anti-AREG monoclonal antibody, that inhibits auto-phosphorylation of EGFR. FIG. 6A is a photograph of a Coomassie blue staining of an acrylamide gel showing a purified fraction of AREG isolated from bacteria and purified on a NiNTA column. The molecular weight marker lane indicates a 15 kilodalton band; FIG. 6B, cells were seeded in a 24 well plate, washed and incubated with increasing concentrations of the purified TRX-AREG fusion protein (8.5, 85, 850, 8500 ng/ml). […] Following a 10-min long incubation, the cells were lysed and cleared extracts immunoblotted (IB) with an anti-phosphotyrosine antibody (PY-99); FIG. 6C, 96 well plates were coated with the indicated ligands (0.1 μg/ml), and then incubated for 3 hours with three different mAbs specific to AREG. Thereafter, wells were incubated for two hours with an anti-mouse antibody conjugated to HRP, followed by a 30 minutes incubation with ATBS. […] Serum from non-immunized mice was used as a negative control; FIG. 6E, HeLa cells were pre-incubated with (or without) mAb AR30 (20 μg/mL) and increasing concentrations of AREG. Thereafter, whole cell lysates were immunoblotted (IB) using an antibody specific to the phosphorylated form of EGFR (tyrosine 1068) or an antibody to EGFR; and FIG. 6F, HeLa cells were incubated with (or without) AREG (100 ng/mL) in the presence of increasing concentrations of mAb AR30 (5, 10, 20 and 50 μg/mL). Thereafter, cells were lysed and cleared extracts immunoblotted (IB) using the indicated antibodies.
FIG. 10A illustrates that anti-AREG mAbs inhibit ligand-induced activation of EGFR. HeLa cells were incubated with (or without) AREG (100 ng/ml) in the presence of increasing concentrations of mAb AR30, mAb AR 37 or mAb AR558 (0.1, 0.2, 0.5, 0.75, 1.5, 3.5, 6.25, 12.5, 25 and 50 μg/ml). Thereafter, cells were lysed and cleared extracts immunoblotted (IB) using the indicated antibodies, including an antibody specific to the phosphorylated (active) for of EGFR (pEGFR).

| ubiquitination of EGFR (EGFR [1]) | EGFR downregulation (EGFR [2]) | binding of AR30 with human AREG (human AREG [5]) | Molecule | tumor growth (MLS ovarian cancer cells; AR30 100 μg/mouse twice a week, cisplatin 5 mg/kg, FIG. 7B) | tumor growth (MLS ovarian cancer cells; antibodies injected into the peritoneum, six weeks, data not shown) | anti-tumor effect compared with cetuximab (MLS ovarian cancer cells; six weeks, data not shown) | tumor growth [3] | inhibition of proliferation (MCF10A cells) | antigenic determinant targeted (human AREG [4]) | recognition of other EGFR ligands (human AREG [5]) | effect of AREG on receptor phosphorylation (EGFR [6]; AR30 5-50 μg/mL, FIGS. 6E-6F) | AREG-induced phosphorylation of EGFR (EGFR [6]) | downstream signaling to ERK (phosphorylated ERK) (EGFR [6]; data not shown) |
| --- | --- | --- | --- | --- | --- | --- | --- | --- | --- | --- | --- | --- | --- |
| strong ubiquitination | 70-75% |  | TGF-alpha: transforming growth factor alpha, high-affinity EGFR ligand |  |  |  |  |  |  |  |  |  |  |
|  |  | high affinity binding | B1 | only mildly inhibited | partly inhibited tumor growth | at least as effective as cetuximab | comparably inhibit tumor growth | Moderate inhibition | engages a different determinant of human AREG | recognized no other EGFR ligand, except for the human form of HB-EGF | only partially reduced | low concentrations of the antibodies were sufficient for blocking | insufficient for blocking downstream signaling to ERK |
|  |  |  | B2 |  |  |  | exceeded the activity of either antibody | Moderate inhibition | engages a different determinant of human AREG |  |  | low concentrations of the antibodies were sufficient for blocking |  |
